Reference: paper PMC8551079
Read-outs that look alike come from different tables or passages of the source.

B1: GH3.3 probe (dsDNA)
DNA 1: ATCAAGAATTAGTTTTAGTTATCAATAAATAGGA
DNA 2: TCCTATTTATTGATAACTAAAACTAATTCTTGAT
B2: PER57 probe (PER probe) (dsDNA)
DNA 1: GCCTCAACTAATAAGTTGTTATGTGCAA
DNA 2: TTGCACATAACAACTTATTAGTTGAGGC
B3: GPAT5 probe (dsDNA)
DNA 1: AATCATAGTTTTGTTACAAGCGAAATCTGAAA
DNA 2: TTTCAGATTTCGCTTGTAACAAAACTATGATT

Legend:
MYB70 [1] = target: T1, MYB70 (Arabidopsis thaliana, UniProt O22179 1-309); test: EMSA
MYB70 [2] = target: T1, MYB70; test: EMSA; remark: listed apart in the source

Row | Binder | binding result (MYB70 [1]) | binding result (MYB70 [2])
1 | B1 | binds | 
2 | B2 |  | binds
3 | B3 |  | binds
